This series concerns the molecule itself. Briefly: solution 2D 1H-1H NOESY NMR, 20 mM peptide. How it is done:
NMR: All solution state NMR experiments were carried out on a Bruker 700 MHz spectrometer equipped with a cryoprobe. NMR data were processed with TOPSPIN (Bruker), then analysed using Sparky (W. Lee et al. Bioinfo. 2015, 31, 1325) programs. 0.5 mM or 20 mM GV8 peptides were dissolved in water, pH 6.8 with 10% D₂O for deuterium lock and DSS for signal reference. Two dimensional (2D)¹H-¹H TOCSY and NOESY spectra were acquired with 80 ms and 200 ms mixing times, respectively. In order to monitor hydrogel formation, 1D ¹H spectrum and a series of 2D ¹H-¹H NOESY spectra were recorded every four hours for 20 hours using the 20 mM peptide solution. For H/D exchange experiments, 0.5 mM and 20 mM peptide samples were dissolved in 100% D₂O and 2D ¹H-¹H TOCSY spectra were recorded at 30 min intervals. The extrinsic exchange rates were obtained by fitting the peak intensity vs. time to a single-exponential decay equation. The protection factor were calculated as the ratio of intrinsic exchange rates (calculated from SPHERE (Bai et al. Proteins. 1993, 17, 75)) to the extrinsic exchange rates. […] Amide temperature coefficients were also determined by recording 1D ¹H spectra of 0.5 mM and 20 mM GV8 peptide at 298 K, 303 K, 308 K and 313 K. Amide proton chemical shift deviations were fitted linearly against temperature and the temperature coefficients were calculated as σδHN/ΔT (ppb K⁻¹).

B1: Ac-GLYGGYGV-NH2 (GV8) peptide (peptide)
peptide: Ac-GLYGGYGV-NH2
notes: Synthetic 8-residue peptide, a repeat derived from suckerin-19; It is entered only for its self-association (dimer or oligomer in solution at 20 mM, antiparallel beta-sheets in the hydrogel); For the ssNMR experiments the peptide was uniformly 13C-15N labelled
Consider B1, for which the binding result is listed as “binds”.

Values taken from US20220024979A1 (NANYANG TECHNOLOGICAL UNIVERSITY, published 2022).
